Positions count from the first letter of the chain named.
Key:
[1] = biological target: T1, recombinant human galectin-10, TEV-cleaved (human, UniProt Q05315 1-142); test: cell-based or functional assay
T1 sequence: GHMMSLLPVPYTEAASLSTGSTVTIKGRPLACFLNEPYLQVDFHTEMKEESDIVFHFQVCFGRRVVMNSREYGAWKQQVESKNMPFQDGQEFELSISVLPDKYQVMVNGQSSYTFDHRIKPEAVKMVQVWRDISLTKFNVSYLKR

[2] = biological target: T2, cynomolgus galectin-10-His, WGS isoform (cynomolgus); test: SPR Biacore T3000, mouse IgG1 captured
T2 construct: also called cynoGal10-WGS; not shown: His tag
T2 chain: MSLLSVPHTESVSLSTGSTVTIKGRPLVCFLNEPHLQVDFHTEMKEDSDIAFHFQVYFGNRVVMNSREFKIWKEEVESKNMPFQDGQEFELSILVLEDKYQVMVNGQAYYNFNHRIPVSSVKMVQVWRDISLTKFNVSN
Description: (§1) The binding capacity of the mouse IgG1 antibody panel to galectin-10 was analysed on Biacore T3000. For this purpose, a capture approach was used, where a fixed concentration (1.5 μg/mL) of the mouse IgG1 clone was captured by polyclonal anti-mouse Fc antibodies immobilized on CM5 Chip to reach a binding signal around 150 RU. Then a serial dilution of human and cynomolgus WGS isoform of galectin-10-His (serial dilution, 1 over 2 from 5 μg/mL) diluted in HBS-EP pH7.4 was injected. Raw data were analysed via BIA evaluation software with a blank subtraction. The kd/KD and Rmax of each mAbs to galectin-10-His was determined using the Fit Kinetics simultaneous ka/kd/Binding with mass transfer/Local Rmax on BIA evaluation software.

human galectin-10-His [3] = biological target: T3, human galectin-10-His (human); test: SPR Biacore T3000, mouse IgG1 captured
T3 construct: The last M of the tag may be Met1 of galectin-10; also called humanGal10-His; hGal10
T3 chain: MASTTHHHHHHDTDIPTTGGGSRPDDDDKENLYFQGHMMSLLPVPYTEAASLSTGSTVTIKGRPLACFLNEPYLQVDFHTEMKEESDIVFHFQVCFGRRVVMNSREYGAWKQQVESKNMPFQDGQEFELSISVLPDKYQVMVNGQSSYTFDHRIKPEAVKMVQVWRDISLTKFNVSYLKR
Description: as §1

[4] = biological target: T2, cynomolgus galectin-10-His, WGS isoform; test: ELISA, coated antigen 0.5 ug/mL
Description: (§2) In a similar setup to that used during the characterization of the scFv-human Fc molecules, the relative binding properties of the 7 mouse IgG1 antibodies were analyzed by ELISA. A Maxisorp plate was coated overnight with 0.5 μg/mL of human or cynomolgus WGS or YRT isoform of galectin-10-His. Then a serial dilution of each clone (from 100 nM, dilution 1/4, 12 points of dilutions) was incubated on coated galectin-10. After several washing steps, detection of the bound mouse IgG1 was carried out with an anti-mouse Fc-HRP antibody (DAMPO, Jackson ImmunoResearch, Catalog 715-035-150). Absorbance was measured at 450 nm (reference at 620 nm) with Tecan instrument. The raw data (OD values) were plotted on GraphPad Prism 7.01. The EC50 values for each antibody, calculated with a non-linear regression (log(agonist) vs. response Variable slope (four parameters)), are shown in the table below. Antibody 1D11 from the previous panel was included for comparison.

human galectin-10-His [5] = biological target: T3, human galectin-10-His; test: ELISA, coated antigen 0.5 ug/mL
Description: as §2

[6] = biological target: T4, cynomolgus galectin-10-His, YRT isoform (cynomolgus); test: ELISA, coated antigen 0.5 ug/mL
T4 construct: also called cynoGal10-YRT; not shown: His tag
T4 chain: T2 chain with K23E, G24A, L31F, F69Y, K70R, I71T, S92R
Description: as §2

[7] = biological target: T1, recombinant human galectin-10, …; test: cell-based or functional assay; remark: listed apart in the source

B1: 8H11 mouse IgG1 (antibody, V domains shown)
VH: ELQLVESGGGLVQPGGSLRLSCAASGFTFSTNYMNWVRQAPGKGLEWVSGITSGGGRTYYADSVKGRFTISRDNAKNTLYLQMNSLKPEDTALYYCARTDHAWLDAWGQGTLVTVSS
VL: QAGLTQPPSVSGTLGKTVTISCAGTSSDVGYGNYVSWYQQLPGTAPKLLIYAVSTRASGIPDRFSGSKSGNTASLTISGLLSEDEADYYCASYRSSNNYVFGGGTKLTVL
notes: VH and VL cloned in frame with mouse IgG1 constant domains; also called 8H11 mIgG1
Q: Which “50% dissolution (min) of CLCs, antibody 50 uM” value [1] does the source give for B1 here?
A: Its value is 22.4 min.

Q: What about the “90% dissolution (min) of CLCs, antibody 50 uM” value [1] of the same binder?
A: The value was 43.5 min.

Q: What about the Kd [2] of the same binder?
A: Its Kd is 4.4 nM.

Q: What about the koff [2] of the same binder?
A: The koff was 0.000754 s⁻¹.

Q: What about the kon [2] of the same binder?
A: The kon was 170000 M⁻¹ s⁻¹.

Q: And the Kd (human galectin-10-His [3])?
A: Its Kd is 0.9 nM.

Q: And the koff (human galectin-10-His [3])?
A: The koff was 0.00197 s⁻¹.

Q: What about the kon (human galectin-10-His [3]) of the same binder?
A: Its kon is 2.31e+06 M⁻¹ s⁻¹.

Q: And the EC50 [4]?
A: The EC50 was 0.03 nM.

Q: What about the OD values [4] of the same binder?
A: The OD values was 3.61 OD.

Q: And the EC50 (human galectin-10-His [5])?
A: The EC50 was 1.46 nM.

Q: What about the OD values (human galectin-10-His [5]) of the same binder?
A: The OD values was 1.5 OD.

Q: What about the EC50 [6] of the same binder?
A: The EC50 was 0.3 nM.

Q: What about the OD values [6] of the same binder?
A: Its OD values is 2.97 OD.

Q: What about the “50% crystal dissolution (min), 50 uM” value [7] of the same binder?
A: The value was 68.3 min.

Q: What about the “90% crystal dissolution (min), 50 uM” value [7] of the same binder?
A: The value was > 120 min.

B2: 11F02 mouse IgG1 (antibody, V domains shown)
VH: B1 VH with L4V, G54H, G56A, A75S, W103S
VL: QTVVTQEPSLSVSPGGTVTLTCGLSSGSVTSSNYPGWYQQKPGQAPRTLIYNTNSRYSGVPNRFSGSISGNKAALTITGAQPEDEADYYCALYMGSSSYNTVFGGGTHLTVL
notes: VH and VL cloned in frame with mouse IgG1 constant domains; also called 11F02 mIgG1
Q: With B2 as the binder, how does the “50% dissolution (min) of CLCs, antibody 50 uM” value [1] read?
A: Its value is 25.5 min.

Q: What about the “90% dissolution (min) of CLCs, antibody 50 uM” value [1] of the same binder?
A: The value was 57.5 min.

Q: And the Kd [2]?
A: The Kd was 5 nM.

Q: And the koff [2]?
A: The koff was 0.00198 s⁻¹.

Q: What about the kon [2] of the same binder?
A: Its kon is 394000 M⁻¹ s⁻¹.

Q: What about the Kd (human galectin-10-His [3]) of the same binder?
A: Its Kd is 2.2 nM.

Q: And the koff (human galectin-10-His [3])?
A: Its koff is 0.00489 s⁻¹.

Q: And the kon (human galectin-10-His [3])?
A: Its kon is 2.27e+06 M⁻¹ s⁻¹.

Q: And the EC50 [4]?
A: The EC50 was 0.6 nM.

Q: What about the OD values [4] of the same binder?
A: Its OD values is 3.29 OD.

Q: What about the EC50 (human galectin-10-His [5]) of the same binder?
A: Its EC50 is 3.08 nM.

Q: What about the OD values (human galectin-10-His [5]) of the same binder?
A: Its OD values is 0.9 OD.

Q: What about the OD values [6] of the same binder?
A: The OD values was 1.7 OD.

B3: 10B02 mouse IgG1 (antibody, V domains shown)
VH: QVQLVESGGGLVQPGGSLRVSCAASGFTFSYHYMNWVRQAPGKGLEWVSGISAGGGRTYYADSVKGRFTISRDNAKNTLYLQMNSLNAEDTALYYCARVHGITNDYWGQGTQVTVSS
VL: QSALTQPPSVSGSPGKTVTISCAGTSSDVGYGNYVSWYQQLPGMAPKLLIYEVNKRASGITDRFSGSKSGNTAFLTISGLQSEDEADYYCASYRNSNNWVFGGGTHLTVL
notes: VH and VL cloned in frame with mouse IgG1 constant domains; also called 10B02 mIgG1
Q: Which results are given for B3?
A: 50% dissolution (min) of CLCs, antibody 50 uM [1]: 25.1 min; 90% dissolution (min) of CLCs, antibody 50 uM [1]: 47.4 min; Kd [2]: 0.9 nM; koff [2]: 0.00042 s⁻¹; kon [2]: 494000 M⁻¹ s⁻¹; Kd (human galectin-10-His [3]): 1.5 nM; koff (human galectin-10-His [3]): 0.00205 s⁻¹; kon (human galectin-10-His [3]): 1.42e+06 M⁻¹ s⁻¹; EC50 [4]: 0.04 nM; OD values [4]: 3.7 OD; EC50 (human galectin-10-His [5]): 2.28 nM; OD values (human galectin-10-His [5]): 1.4 OD; EC50 [6]: 0.14 nM; OD values [6]: 3.36 OD; 50% crystal dissolution (min), 50 uM [7]: 73.7 min; 90% crystal dissolution (min), 50 uM [7]: > 120 min

Reference: patent US20190367619A1 (ARGENX, published 2019)
